Tests used:
[1] = target: Clostridioides difficile transferase B component, CDTb(45-876), activated with trypsin (Clostridioides difficile) (UniProt O32739); assay: SDS-PAGE of SDS-resistant oligomers
[2] = target: Clostridioides difficile transferase B component, CDTb(45-876), activated with trypsin (Clostridioides difficile) (UniProt O32739); assay: SEC

Clostridioides difficile transferase B component, CDTb(45-876), activated with trypsin (from UniProt O32739 45-876) (natural protein)
fold oligomer formed with 2.5 M ethanol against water [1]: 7.5 fold
stoichiometry N [2]: 7
